For one experiment, the target named is T1, His6-tagged SEC5B (Arabidopsis thaliana, UniProt F4HWE6 1-1090).
T1 sequence: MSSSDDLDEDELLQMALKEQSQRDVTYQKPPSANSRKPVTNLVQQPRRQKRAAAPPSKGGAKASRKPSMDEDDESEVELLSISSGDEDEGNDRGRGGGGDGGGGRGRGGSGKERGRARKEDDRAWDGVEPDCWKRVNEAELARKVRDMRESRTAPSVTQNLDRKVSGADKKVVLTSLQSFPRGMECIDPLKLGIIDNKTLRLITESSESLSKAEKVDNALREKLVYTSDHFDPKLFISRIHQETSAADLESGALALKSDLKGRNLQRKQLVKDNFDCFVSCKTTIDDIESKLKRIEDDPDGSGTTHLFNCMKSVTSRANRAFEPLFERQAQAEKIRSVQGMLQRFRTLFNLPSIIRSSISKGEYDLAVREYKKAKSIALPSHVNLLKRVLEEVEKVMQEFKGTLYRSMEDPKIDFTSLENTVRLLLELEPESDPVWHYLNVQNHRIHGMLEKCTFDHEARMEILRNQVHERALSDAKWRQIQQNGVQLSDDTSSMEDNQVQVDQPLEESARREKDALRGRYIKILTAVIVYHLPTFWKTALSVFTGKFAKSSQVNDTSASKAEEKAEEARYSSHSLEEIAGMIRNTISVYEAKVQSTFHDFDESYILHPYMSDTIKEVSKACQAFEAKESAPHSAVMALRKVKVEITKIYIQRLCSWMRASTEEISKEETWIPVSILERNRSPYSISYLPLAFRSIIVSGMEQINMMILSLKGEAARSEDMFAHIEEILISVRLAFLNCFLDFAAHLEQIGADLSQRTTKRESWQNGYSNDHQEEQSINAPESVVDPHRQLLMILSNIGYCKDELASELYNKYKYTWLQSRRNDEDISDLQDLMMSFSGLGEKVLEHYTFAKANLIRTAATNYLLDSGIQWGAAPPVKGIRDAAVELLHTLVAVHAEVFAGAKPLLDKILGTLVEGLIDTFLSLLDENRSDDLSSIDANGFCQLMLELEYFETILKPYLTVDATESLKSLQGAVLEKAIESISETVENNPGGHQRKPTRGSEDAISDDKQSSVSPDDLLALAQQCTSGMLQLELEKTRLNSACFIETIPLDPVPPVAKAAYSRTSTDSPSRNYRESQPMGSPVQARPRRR
The experiment is described as follows: pull-down.

Another experiment deals with T2, His6-tagged SEC15B (Arabidopsis thaliana, UniProt F4JHH5 1-787).
T2 sequence: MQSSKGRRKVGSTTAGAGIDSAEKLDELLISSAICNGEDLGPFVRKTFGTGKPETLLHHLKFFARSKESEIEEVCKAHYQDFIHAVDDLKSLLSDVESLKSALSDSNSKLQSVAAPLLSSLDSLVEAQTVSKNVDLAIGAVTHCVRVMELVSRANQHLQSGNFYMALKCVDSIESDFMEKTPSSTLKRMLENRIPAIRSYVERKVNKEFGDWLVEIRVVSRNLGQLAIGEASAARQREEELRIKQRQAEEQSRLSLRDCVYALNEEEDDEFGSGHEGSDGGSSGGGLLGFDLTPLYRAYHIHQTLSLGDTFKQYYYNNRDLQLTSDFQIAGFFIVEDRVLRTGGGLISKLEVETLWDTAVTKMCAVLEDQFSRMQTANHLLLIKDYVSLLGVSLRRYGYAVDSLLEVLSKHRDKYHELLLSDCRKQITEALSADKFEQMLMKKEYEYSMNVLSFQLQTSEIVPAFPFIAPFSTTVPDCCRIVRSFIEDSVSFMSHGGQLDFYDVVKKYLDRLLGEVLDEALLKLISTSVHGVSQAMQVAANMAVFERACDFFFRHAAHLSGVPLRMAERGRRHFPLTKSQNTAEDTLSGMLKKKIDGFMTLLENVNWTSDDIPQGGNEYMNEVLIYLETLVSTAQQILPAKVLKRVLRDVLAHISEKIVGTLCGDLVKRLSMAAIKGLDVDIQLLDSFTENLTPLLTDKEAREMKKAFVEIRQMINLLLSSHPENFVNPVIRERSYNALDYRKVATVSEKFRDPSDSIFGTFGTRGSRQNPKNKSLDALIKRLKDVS
Put plainly: pull-down.

Where a chain is given by its changes, count along the chain named. Numbers in names are those of the source.

B1: GST-tagged myosin XIK GTD (wild type) (domain or fragment)
chain: ISPTSRTMATRSKTMLLPRTPENGNYLNGGTKTTPDMTLAVREPESEEKPQKHLNEKQQENQDLLVKCISQNLGYNGDKPVAACVIYKCLLHWRSFEVERTSVFDRIIQTIATAIEVPDNNEVLAYWLSNSATLLLLLQRTLKATGAASLTPQRRRTTSASLFGRMSQGLRGSPQSAGLSFLNRQGLTKLDDLRQVEAKYPALLFKQQLTAFLEKIYGMIRDNLKKEISPLLGLCIQAPRTSRASLVKGRAQANAVAQQALIAHWQSIRKSLNSYLNLMKANNAPPFLVRKVFTQIFSFINVQLFNSLLLRRECCSFSNGEYVKAGLAELEQWCIEATDEYAGSAWDELRHIRQAVGFLVIHQKPKKTLDEITRELCPVLSIQQLYRISTMYWDDKYGTHSVSSDVIANMRVMMTEDSNNAVSSSFLLDDDSSIPFTVEDISKSMQQVDVNDIEPPQLIRENSGFGFLLTRKEGSTS
For B1, the binding result with His6-tagged SEC5B and with His6-tagged SEC15B was “binds” in each case.

B2: GST-XIK GTD K1103A (domain or fragment)
chain: B1 chain with K49A
With B2, the binding result with His6-tagged SEC5B was “binds”.
